# According to US20260258128A1 (MUSTBIO, published 2026):
# Substitutions are numbered along the chain they refer to.
# B1: Protein complex of CD3-binding antibody variable region 3-Fc x PD-L1 antibody (bispecific antibody)
# scFv-Fc: EVQLVESGGGLVQPGGSLRLSCAASGFSFTGYTMNWVRQAPGKCLEWVALINPYKGVTTYADSVKGRFTISRDNSKNTLYLQMNSLRAEDTAVYYCARSGYYGDSDWYFDVWGQGTLVTVSSGGGGSGGGGSGGGGSDIQMTQSPSSLSASVGDRVTITCRASQDIRNYLNWYQQKPGKAPKLLIYYTSSLESGVPSRFSGSGSGTDYTLTISSLQPEDFATYYCQQGNTLPWTFGCGTKVEIKRTEPKSSDKTHTCPPCPAPEAAGGPSVFLFPPKPKDTLMISRTPEVTCVVVDVSHEDPEVKFNWYVDGVEVHNAKTKPREEQYNSTYRVVSVLTVLHQDWLNGKEYKCKVSNKALPAPIEKTISKAKGQPREPQVYTGPPSRDELTKNQVSLSCAVKGFYPSDIAVEWESNGQPENNYKTTPPVLDSDGSFFLVSKLTVDKSRWQQGNVFSCSVMHEALHNHYTQKSLSLSPGK
# heavy: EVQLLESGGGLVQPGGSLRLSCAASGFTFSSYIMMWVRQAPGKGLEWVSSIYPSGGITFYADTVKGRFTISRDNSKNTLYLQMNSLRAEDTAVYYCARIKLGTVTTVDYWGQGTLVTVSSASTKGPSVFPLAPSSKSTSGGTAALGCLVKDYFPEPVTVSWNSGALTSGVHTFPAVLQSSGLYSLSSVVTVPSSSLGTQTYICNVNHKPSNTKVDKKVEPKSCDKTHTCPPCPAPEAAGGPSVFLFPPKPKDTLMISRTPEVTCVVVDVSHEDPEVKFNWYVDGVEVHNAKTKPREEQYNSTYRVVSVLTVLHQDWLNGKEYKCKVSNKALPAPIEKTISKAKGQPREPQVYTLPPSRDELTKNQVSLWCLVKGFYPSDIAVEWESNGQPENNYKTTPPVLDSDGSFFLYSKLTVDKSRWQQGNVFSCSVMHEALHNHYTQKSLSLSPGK
# light: QSALTQPASVSGSPGQSITISCTGTSSDVGGYNYVSWYQQHPGKAPKLMIYDVSNRPSGVSNRFSGSKSGNTASLTISGLQAEDEADYYCSSYTSSSTRVFGTGTKVTVLGQPKANPTVTLFPPSSEELQANKATLVCLISDFYPGAVTVAWKADGSPVKAGVETTKPSKQSNNKYAASSYLSLTPEQWKSHRSYSCQVTHEGSTVEKTVAPTECS
# B2: Protein complex of CD3-binding antibody variable region 1-Fc x PD-L1 antibody (bispecific antibody)
# chain 1: EVQLVESGGGLVQPGGSLRLSCAASGFSFTGYTMNWVRQAPGKGLEWVALINPYKGVTTYADSVKGRFTISRDNSKNTAYLQMNSLRAEDTAVYYCARSGYYGDSDWYFDVWGQGTLVTVSSDIQMTQSPSSLSASVGDRVTITCRASQDIRNYLNWYQQKPGKAPKLLIYYTSRLESGVPSRFSGSGSGTDYTLTISSLQPEDFATYYCQQGNTLPWTFGQGTKVEIKRT
# chain 2: EVQLLESGGGLVQPGGSLRLSCAASGFTFSSYIMMWVRQAPGKGLEWVSSIYPSGGITFYADTVKGRFTISRDNSKNTLYLQMNSLRAEDTAVYYCARIKLGTVTTVDYWGQGTLVTVSSASTKGPSVFPLAPSSKSTSGGTAALGCLVKDYFPEPVTVSWNSGALTSGVHTFPAVLQSSGLYSLSSVVTVPSSSLGTQTYICNVNHKPSNTKVDKKV
# chain 3: B1 light
# B3: Protein complex of CD3-binding antibody variable region 4-Fc x PD-L1 antibody (bispecific antibody)
# chain 1: B2 chain 1 with R72A, A79L, R175S
# chain 2: B2 chain 2
# chain 3: B1 light
# B4: Protein complex of CD3-binding antibody variable region 5-Fc x PD-L1 antibody (bispecific antibody)
# chain 1: B2 chain 1 with G44C, R72A, A79L, R175S, Q222C
# chain 2: B2 chain 2
# chain 3: B1 light
# B5: Protein complex of CD3-binding antibody variable region 6-Fc x PD-L1 antibody (bispecific antibody)
# chain 1: B2 chain 1 with R72D, A79L, R175S
# chain 2: B2 chain 2
# chain 3: B1 light
# B6: Protein complex of CD3-binding antibody variable region 7-Fc x PD-L1 antibody (bispecific antibody)
# chain 1: B2 chain 1 with R72Q, A79L, R175S
# chain 2: B2 chain 2
# chain 3: B1 light
# B7: Protein complex of CD3-binding antibody variable region 2-Fc x PD-L1 antibody (bispecific antibody)
# scFv-Fc: B1 scFv-Fc with C44G, C237Q
# heavy: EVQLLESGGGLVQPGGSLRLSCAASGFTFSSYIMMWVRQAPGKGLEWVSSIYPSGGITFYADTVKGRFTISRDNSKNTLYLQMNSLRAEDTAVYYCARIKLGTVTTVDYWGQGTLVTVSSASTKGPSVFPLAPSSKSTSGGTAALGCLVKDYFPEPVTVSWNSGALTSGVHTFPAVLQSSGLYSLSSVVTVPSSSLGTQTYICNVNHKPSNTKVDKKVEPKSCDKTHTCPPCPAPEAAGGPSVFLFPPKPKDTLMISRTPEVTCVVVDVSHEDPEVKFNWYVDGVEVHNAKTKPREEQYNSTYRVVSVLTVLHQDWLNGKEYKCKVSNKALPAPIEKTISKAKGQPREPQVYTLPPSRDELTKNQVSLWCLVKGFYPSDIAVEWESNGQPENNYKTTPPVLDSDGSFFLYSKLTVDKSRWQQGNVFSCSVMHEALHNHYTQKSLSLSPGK
# light: B1 light
# Molecular target: T1, CD3 on T cells of human peripheral blood mononuclear cells (human, UniProt P07766 23-207)
# Assay: cell-based or functional assay
# T1 sequence (P07766 23-207): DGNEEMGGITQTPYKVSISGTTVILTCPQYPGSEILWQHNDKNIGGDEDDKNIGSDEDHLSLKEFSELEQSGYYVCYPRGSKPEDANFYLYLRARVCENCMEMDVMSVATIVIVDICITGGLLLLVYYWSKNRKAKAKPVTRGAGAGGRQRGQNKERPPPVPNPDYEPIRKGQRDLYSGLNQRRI
row,Binder,fold reduction of the maximum cytokine release level compared to the CD3-binding monoclonal antibody [fold]
1,B1,10.5

# Molecular target: T1, CD3 on T cells of human peripheral …
# Assay: cell-based or functional assay
# Remark: another data set of the same source
Binder,"Death of cancer cells EC50 (MDA-MB-231 + human PBMC, flow cytometry) [nM]",Death of cancer cells Emax (%),IFNγ release EC50 [nM],IFNγ release Maximum concentration [ng/mL]
B2,0.23,80,0.1,6.1
B3,0.18,79,31.2,2.6
B4,0.18,66,10,4.4
B1,0.06,–,0.1,–
B5,3.5,68,16.4,5.1
B6,2.26,68,15.3,9.3
B7,0.05,–,2.5,–

# Molecular target: PD-L1 on human cells (MDA-MB-231, MCF-7, 293T) (human, UniProt Q9NZQ7 19-290)
# Assay: cell-based or functional assay
# Sequence of PD-L1 on human cells (MDA-MB-231, MCF-7, 293T) (Q9NZQ7 19-290): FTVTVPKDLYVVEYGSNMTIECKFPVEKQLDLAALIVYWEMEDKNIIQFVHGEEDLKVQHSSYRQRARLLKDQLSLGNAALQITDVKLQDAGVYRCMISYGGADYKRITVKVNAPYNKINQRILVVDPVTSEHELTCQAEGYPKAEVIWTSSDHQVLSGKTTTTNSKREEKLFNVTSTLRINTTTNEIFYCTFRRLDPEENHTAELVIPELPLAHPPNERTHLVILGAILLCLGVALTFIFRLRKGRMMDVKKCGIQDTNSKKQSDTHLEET
Binder,"Tumor lysis EC50, 293T (normal cells, low PD-L1 expression) + human PBMC [pM]","Tumor lysis EC50, MCF7 (low PD-L1 expression) + human PBMC [pM]","Tumor lysis EC50, MDA-MB-231 (high PD-L1 expression) + human PBMC [pM]"
B7,31.3,150,94.5
